Assay results: patent US9260500B2, “Peptide and use thereof” (Takeda Pharmaceutical Company Limited, priority 2009, dated 2016)
Starred links: 1 amine or outer side, 2 acyl side, 3 side chain; linkers in the order of their positions; H or OH if unused. Non-standard residues stand in square brackets, D forms with d. *: point of attachment. X11 = ((1S)-1-carboxy-3-methylbutyl)carbamoyl, CC(C)C[C@H](NC(=O)*)C(=O)O; Ala(piperidin-4-yl) = O=C([C@H](CC1CCN([*:3])CC1)N[*:1])[*:2]; (3-Carboxypropyl)carbamoyl = O=C(O)CCCNC(=O)*; (2-carboxyethyl)carbamoyl = O=C(O)CCNC(=O)*; Imidazole4carbonyl = O=C(c1cnc[nH]1)*; tBuAla = CC(C)(C)C[C@H](N)C(=O)O; 4Pal = N[C@@H](Cc1ccncc1)C(=O)O; dHyp = O=C(O)[C@H]1C[C@H](O)CN1; Cha = N[C@@H](CC1CCCCC1)C(=O)O; hSer = N[C@@H](CCO)C(=O)O; Iva = CC[C@](C)(N)C(=O)O; NMeA = CN[C@@H](C)C(=O)O; Aib = CC(C)(N)C(=O)O

Legend:
human Y2 receptor [1] = target: T1, human Y2 receptor (Homo sapiens, UniProt P49146); test: Human Y2 Receptor G Protein Binding Assay (GBA), [35S]GTPγS; type: biochemical; settings: EC50 of test compound/EC50 of PYY(3-36) (PYY3-36 taken as 1), hY2R/CHO membrane fraction
T1 construct: expressed in transfected cells; membrane fraction
T1 sequence (P49146 1-381): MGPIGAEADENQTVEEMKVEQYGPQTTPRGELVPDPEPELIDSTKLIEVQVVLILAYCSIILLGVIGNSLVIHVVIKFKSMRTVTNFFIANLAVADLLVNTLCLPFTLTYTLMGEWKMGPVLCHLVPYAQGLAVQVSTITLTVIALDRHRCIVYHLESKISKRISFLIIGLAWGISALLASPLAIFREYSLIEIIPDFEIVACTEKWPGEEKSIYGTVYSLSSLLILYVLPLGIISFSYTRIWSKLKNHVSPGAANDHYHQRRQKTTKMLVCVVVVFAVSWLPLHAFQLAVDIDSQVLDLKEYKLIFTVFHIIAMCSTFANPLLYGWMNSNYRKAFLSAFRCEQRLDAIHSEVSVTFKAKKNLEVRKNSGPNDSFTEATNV
Summary of the method: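 Agonism measured as [35S]GTPγS binding, read by GF/C filtration and scintillation counting after 120 min at room temperature, using human Y2 membranes at 1 μg protein/mL in pH 7.4 Tris/MgCl2/NaCl/GDP buffer. Compound serially diluted 100 μM–1 nM; EC50 normalized to PYY(3-36) (ratio = compound/PYY).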

male C57EL/6J mice = test: 3-Days Continuous Subcutaneous Administration Test-1 (food intake suppressing activity); type: in vivo, mouse; settings: 0.03 mg/kg/day, subcutaneous Alzet pump, food consumption over 3 days; relative to food intake suppression rate for PYY(3-36) (1 mg/kg/day) taken as 100%
Method: (4) Test Method: 3-Days Continuous Subcutaneous Administration Test-1
The food intake suppressing activity of the compound of the present invention was examined by the method described below.
The test compound was dissolved in 50% DMSO so that sustained release would occur at 0.03 mg/kg/day, and the solution was filled in the Alzet Pump (Alzet model: 1003D, sustained release rate: 1 μL/hr, capacity: 100 μL). After the filling, the pump was placed in a 2 mL Eppendorf tube containing 330 μL of physiological saline, and incubated at 37° C. for 2 hours or more. Thereafter, this pump was subcutaneously embedded in the back of each mouse by the method described below. After weighing, each male […] mice at 12-13 weeks of age (25° C., allowed to take food and water ad libitum; 12-hour bright-12-hour dark cycle, lighting turned on at 08:00) was anesthetized with diethyl ether; the skin in the upper back thereof was incised, and the above-mentioned pump was embedded subcutaneously. Thereafter, several drops of penicillin solution (100000 units/mL) were added to the incised part, and the incision was sutured using Michel's surgical needle. This mouse was returned to the rearing cage (reared alone), and given previously weighed food; 3 days later, the amount of remaining food was measured. Food consumption was calculated by subtracting the amount of remaining food after 3 days from the weight of the food given on the day of pump embedding. The food intake suppressing activity of each test compound was expressed as a food intake suppression rate (%) relative to the food intake suppression rate for PYY(3-36) (1 mg/kg/day) taken as 100%.

human Y2 receptor [2] = target: T1, human Y2 receptor; test: Receptor Binding Assay (RBA) for Human Y2, [125I]-PYY displacement on hY2R/CHO membrane fraction; settings: IC50 of test compound/IC50 of PYY(3-36) (PYY(3-36) taken as 1)
Summary of the method: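 Read-out is [125I]-PYY displacement from membranes of CHO/dhfr− cells stably transfected with human Y2R. Membranes were obtained by disrupting cells in a buffer of 10 mM NaHCO3, 5 mM EDTA and protease inhibitors.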

GBA EC50 Ratio (human Y2 receptor [1]) | RBA IC50 Ratio (human Y2 receptor [2]) | Substance | food intake suppression rate (%) (male C57EL/6J mice)
1.3 | 4.6 | Ac-[Glu23, D-Pro24, Pya(4)26, Cha27,28,36, Aib31]-PYY(23-36) (Ac-E[dP]R[4Pal][Cha][Cha]NL[Aib]TRQR[Cha]-NH2; SMILES CC(=O)N[C@@H](CCC(=O)O)C(=O)N1CCC[C@@H]1C(=O)N[C@@H](CCCNC(=N)N)C(=O)N[C@@H](Cc1ccncc1)C(=O)N[C@@H](CC1CCCCC1)C(=O)N[C@@H](CC1CCCCC1)C(=O)N[C@@H](CC(N)=O)C(=O)N[C@@H](CC(C)C)C(=O)NC(C)(C)C(=O)N[C@H](C(=O)N[C@@H](CCCNC(=N)N)C(=O)N[C@@H](CCC(N)=O)C(=O)N[C@@H](CCCNC(=N)N)C(=O)N[C@@H](CC1CCCCC1)C(N)=O)[C@@H](C)O) [compound No. 141] | –
1.6 | 2.5 | Ac-[Hse23, D-Pro24, Cha27,28,36, Aib31]-PYY(23-36) (Ac-[hSer][dP]RH[Cha][Cha]NL[Aib]TRQR[Cha]-NH2; SMILES CC(=O)N[C@@H](CCO)C(=O)N1CCC[C@@H]1C(=O)N[C@@H](CCCNC(=N)N)C(=O)N[C@@H](Cc1c[nH]cn1)C(=O)N[C@@H](CC1CCCCC1)C(=O)N[C@@H](CC1CCCCC1)C(=O)N[C@@H](CC(N)=O)C(=O)N[C@@H](CC(C)C)C(=O)NC(C)(C)C(=O)N[C@H](C(=O)N[C@@H](CCCNC(=N)N)C(=O)N[C@@H](CCC(N)=O)C(=O)N[C@@H](CCCNC(=N)N)C(=O)N[C@@H](CC1CCCCC1)C(N)=O)[C@@H](C)O) [compound No. 157] | –
5.1 | 6.1 | Ac-[D-Ser23, MeAla24, Cha27,28,36, Aib31]-PYY(23-36) (Ac-[dS][NMeA]RH[Cha][Cha]NL[Aib]TRQR[Cha]-NH2; SMILES CC(=O)N[C@H](CO)C(=O)N(C)[C@@H](C)C(=O)N[C@@H](CCCNC(=N)N)C(=O)N[C@@H](Cc1c[nH]cn1)C(=O)N[C@@H](CC1CCCCC1)C(=O)N[C@@H](CC1CCCCC1)C(=O)N[C@@H](CC(N)=O)C(=O)N[C@@H](CC(C)C)C(=O)NC(C)(C)C(=O)N[C@H](C(=O)N[C@@H](CCCNC(=N)N)C(=O)N[C@@H](CCC(N)=O)C(=O)N[C@@H](CCCNC(=N)N)C(=O)N[C@@H](CC1CCCCC1)C(N)=O)[C@@H](C)O) [compound No. 109] | –

The next lines start with the substance.

Substance | GBA EC50 Ratio (human Y2 receptor [1]) | RBA IC50 Ratio (human Y2 receptor [2]) | food intake suppression rate (%) (male C57EL/6J mice)
(2-Carboxyethyl)carbamoyl-[D-Pro24, Iva25, Pya(4)26, Cha27,36, Aib28,31, Lys30]-PYY(23-36) ({(2-carboxyethyl)carbamoyl}-S[dP][Iva][4Pal][Cha][Aib]NK[Aib]TRQR[Cha]-NH2; SMILES CC[C@](C)(NC(=O)[C@H]1CCCN1C(=O)[C@H](CO)NC(=O)NCCC(=O)O)C(=O)N[C@@H](Cc1ccncc1)C(=O)N[C@@H](CC1CCCCC1)C(=O)NC(C)(C)C(=O)N[C@@H](CC(N)=O)C(=O)N[C@@H](CCCCN)C(=O)NC(C)(C)C(=O)N[C@H](C(=O)N[C@@H](CCCNC(=N)N)C(=O)N[C@@H](CCC(N)=O)C(=O)N[C@@H](CCCNC(=N)N)C(=O)N[C@@H](CC1CCCCC1)C(N)=O)[C@@H](C)O) [compound No. 341] | 2.4 | 3.2 | 35
Ac-[D-Pro24, Pya(4)26, Cha27,36, Aib28,31, Ala(4-pip)30]-PYY(23-36) (Ac-S[dP]R[4Pal][Cha][Aib]N[Ala(piperidin-4-yl)][Aib]TRQR[Cha]-NH2; SMILES CC(=O)N[C@@H](CO)C(=O)N1CCC[C@@H]1C(=O)N[C@@H](CCCNC(=N)N)C(=O)N[C@@H](Cc1ccncc1)C(=O)N[C@@H](CC1CCCCC1)C(=O)NC(C)(C)C(=O)N[C@@H](CC(N)=O)C(=O)N[C@@H](CC1CCNCC1)C(=O)NC(C)(C)C(=O)N[C@H](C(=O)N[C@@H](CCCNC(=N)N)C(=O)N[C@@H](CCC(N)=O)C(=O)N[C@@H](CCCNC(=N)N)C(=O)N[C@@H](CC1CCCCC1)C(N)=O)[C@@H](C)O) [compound No. 313] | 0.8 | 0.72 | 23
(3-Carboxypropyl)carbamoyl-[D-Hyp24, Iva25, Pya(4)26, Cha27,36, Leu(Me)28, Lys30, Aib31]-PYY(23-36) ({(3-Carboxypropyl)carbamoyl}-S[dHyp][Iva][4Pal][Cha][tBuAla]NK[Aib]TRQR[Cha]-NH2; ends and bridges not checked) [compound No. 349] | 1.7 | 0.57 | 52
4-Imidazolecarbonyl-[D-Pro24, Iva25, Pya(4)26, Cha27,36, Aib28,31, Lys30]-PYY(23-36) (Imidazole4carbonyl-S[dP][Iva][4Pal][Cha][Aib]NK[Aib]TRQR[Cha]-NH2; SMILES CC[C@](C)(NC(=O)[C@H]1CCCN1C(=O)[C@H](CO)NC(=O)c1cnc[nH]1)C(=O)N[C@@H](Cc1ccncc1)C(=O)N[C@@H](CC1CCCCC1)C(=O)NC(C)(C)C(=O)N[C@@H](CC(N)=O)C(=O)N[C@@H](CCCCN)C(=O)NC(C)(C)C(=O)N[C@H](C(=O)N[C@@H](CCCNC(=N)N)C(=O)N[C@@H](CCC(N)=O)C(=O)N[C@@H](CCCNC(=N)N)C(=O)N[C@@H](CC1CCCCC1)C(N)=O)[C@@H](C)O) [compound No. 300] | 0.91 | 0.77 | 35
Ac-[Glu23, D-Pro24, Cha27,28,36, Lys30, Aib31]-PYY(23-36) (Ac-E[dP]RH[Cha][Cha]NK[Aib]TRQR[Cha]-NH2; SMILES CC(=O)N[C@@H](CCC(=O)O)C(=O)N1CCC[C@@H]1C(=O)N[C@@H](CCCNC(=N)N)C(=O)N[C@@H](Cc1c[nH]cn1)C(=O)N[C@@H](CC1CCCCC1)C(=O)N[C@@H](CC1CCCCC1)C(=O)N[C@@H](CC(N)=O)C(=O)N[C@@H](CCCCN)C(=O)NC(C)(C)C(=O)N[C@H](C(=O)N[C@@H](CCCNC(=N)N)C(=O)N[C@@H](CCC(N)=O)C(=O)N[C@@H](CCCNC(=N)N)C(=O)N[C@@H](CC1CCCCC1)C(N)=O)[C@@H](C)O) [compound No. 137] | – | – | 25
Ac-[D-Pro24, Phe26, Cha27,36, Aib28,31, Lys30]-PYY(23-36) (Ac-S[dP]RF[Cha][Aib]NK[Aib]TRQR[Cha]-NH2; SMILES CC(=O)N[C@@H](CO)C(=O)N1CCC[C@@H]1C(=O)N[C@@H](CCCNC(=N)N)C(=O)N[C@@H](Cc1ccccc1)C(=O)N[C@@H](CC1CCCCC1)C(=O)NC(C)(C)C(=O)N[C@@H](CC(N)=O)C(=O)N[C@@H](CCCCN)C(=O)NC(C)(C)C(=O)N[C@H](C(=O)N[C@@H](CCCNC(=N)N)C(=O)N[C@@H](CCC(N)=O)C(=O)N[C@@H](CCCNC(=N)N)C(=O)N[C@@H](CC1CCCCC1)C(N)=O)[C@@H](C)O) [compound No. 345] | – | – | 10
Ac-[D-Pro24, Cha27,36, Leu(Me)28, Lys30, Aib31]-PYY(23-36) (Ac-S[dP]RH[Cha][tBuAla]NK[Aib]TRQR[Cha]-NH2; SMILES CC(=O)N[C@@H](CO)C(=O)N1CCC[C@@H]1C(=O)N[C@@H](CCCNC(=N)N)C(=O)N[C@@H](Cc1c[nH]cn1)C(=O)N[C@@H](CC1CCCCC1)C(=O)N[C@@H](CC(C)(C)C)C(=O)N[C@@H](CC(N)=O)C(=O)N[C@@H](CCCCN)C(=O)NC(C)(C)C(=O)N[C@H](C(=O)N[C@@H](CCCNC(=N)N)C(=O)N[C@@H](CCC(N)=O)C(=O)N[C@@H](CCCNC(=N)N)C(=O)N[C@@H](CC1CCCCC1)C(N)=O)[C@@H](C)O) [compound No. 136] | – | – | 10
[(1S)-1-carboxy-3-methylbutyl]carbamoyl-[D-Pro24, Cha27,36, Leu(Me)28, Lys30, Aib31]-PYY(23-36) (X11-S[dP]RH[Cha][tBuAla]NK[Aib]TRQR[Cha]-NH2; SMILES CC(C)C[C@H](NC(=O)N[C@@H](CO)C(=O)N1CCC[C@@H]1C(=O)N[C@@H](CCCNC(=N)N)C(=O)N[C@@H](Cc1c[nH]cn1)C(=O)N[C@@H](CC1CCCCC1)C(=O)N[C@@H](CC(C)(C)C)C(=O)N[C@@H](CC(N)=O)C(=O)N[C@@H](CCCCN)C(=O)NC(C)(C)C(=O)N[C@H](C(=O)N[C@@H](CCCNC(=N)N)C(=O)N[C@@H](CCC(N)=O)C(=O)N[C@@H](CCCNC(=N)N)C(=O)N[C@@H](CC1CCCCC1)C(N)=O)[C@@H](C)O)C(=O)O) [compound No. 253] | – | – | 19
